Measurements from patent publication US20160083466A1 (Regeneron, published 2016).

T1: mouse IL-25 expressed with a C-terminal myc-myc-hexahistidine tag (mouse)
T1 construct: also called Mouse IL-25-MMH; mIL-25-MMH
T1 chain: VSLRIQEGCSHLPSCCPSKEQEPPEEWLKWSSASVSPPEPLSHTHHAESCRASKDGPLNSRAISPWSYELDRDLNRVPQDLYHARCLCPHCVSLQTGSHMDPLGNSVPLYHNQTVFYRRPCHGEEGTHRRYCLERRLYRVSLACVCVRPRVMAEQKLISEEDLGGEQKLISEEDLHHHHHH

T2: rat IL-25 expressed with a C-terminal myc-myc-hexahistidine tag (rat)
T2 construct: also called Rat IL-25-MMH
T2 chain: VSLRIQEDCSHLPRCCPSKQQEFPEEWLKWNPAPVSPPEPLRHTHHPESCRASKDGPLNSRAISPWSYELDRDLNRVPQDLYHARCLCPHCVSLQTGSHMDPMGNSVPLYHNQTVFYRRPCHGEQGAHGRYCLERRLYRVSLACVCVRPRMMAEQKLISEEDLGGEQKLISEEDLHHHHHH

T3: human IL-25 expressed with a C-terminal myc-myc-hexahistidine tag (human)
T3 construct: also called hIL-25-MMH; Human IL-25-MMH
T3 chain: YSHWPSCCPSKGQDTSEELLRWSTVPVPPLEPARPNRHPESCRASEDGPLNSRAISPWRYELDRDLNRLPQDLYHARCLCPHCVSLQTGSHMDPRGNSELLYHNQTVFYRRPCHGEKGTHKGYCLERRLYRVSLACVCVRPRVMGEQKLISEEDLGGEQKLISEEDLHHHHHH

T4: monkey IL-25 expressed with a C-terminal myc-myc-hexahistidine tag (M. fascicularis (cynomolgus monkey))
T4 construct: also called Monkey IL-25-MMH; MfIL-25-MMH
T4 chain: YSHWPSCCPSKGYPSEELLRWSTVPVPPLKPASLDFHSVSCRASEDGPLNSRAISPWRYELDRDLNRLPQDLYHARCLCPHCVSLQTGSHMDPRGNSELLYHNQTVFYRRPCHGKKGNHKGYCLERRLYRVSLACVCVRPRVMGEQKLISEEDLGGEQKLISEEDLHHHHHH

B1: H4H10863P (antibody, human IgG4, V domains shown)
VH: QVQLVQSGAEVKKPGASVKVSCKASGYTFSSYGISWVRQAPGQGLEWMGWISAYNDNTQYAQKFQGRVTMTTDTSTSTAYMELRSLRSDDTAVYYCARVPLQWFGESFDHWGQGTLVTVSS
VL: DIQMTQSPSSLSASVGDRVTITCRASQDINNYLNWFQQKPGKAPKLLIFSTSSLQSGVPSRFSGSGSGTDFTLTISSLQSEDFATYYCQQTFITPLTFGGGTKVEIK
notes: H4H prefix = human IgG4 Fc
B2: H4H10864P (antibody, human IgG4, V domains shown)
VH: QVQLQESGPGLVKPSETLSLTCTVSGGSISNYFWSWIRQPPGKGLEWIGFNYNSGSTNYNPSLKSRVTISVDTSKNQFSLKLSSVTAADTAVYYCARGYNWNYEIAWFDPWGQGTLVTVSS
VL: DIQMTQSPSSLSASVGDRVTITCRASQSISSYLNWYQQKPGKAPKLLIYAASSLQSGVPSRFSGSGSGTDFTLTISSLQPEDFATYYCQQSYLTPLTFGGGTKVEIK
notes: H4H prefix = human IgG4 Fc
B3: H4H10871P (antibody, human IgG4, V domains shown)
VH: QVQLVQSGAEVMKPGASVKVSCKSSDFAFTTYGISWVRQAPGQGLEWMGWISAYNGNTNYEQRFQGRITMTTDTSTTTVYMELRSLRSDDTAVYYCARDPDYCSSNTCSDAFDLWGQGTMVTVSS
VL: DIQMTQSPSSLSASVRDRVTITCRASQGITNYLAWYQQKPGKVPKVLIYAASTLQSGVPSRFSGSGSGTEFTLAISSLQPEDVATYFCQQYGSAPWTFGQGTKVEIK
notes: H4H prefix = human IgG4 Fc

Biological target: T1, mouse IL-25 expressed with a C-terminal …
Test: SPR Biacore, antibody captured, 37C;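 on 100 nM Monkey IL-25-MMH Bound (RU): biacore 4000 surface plasmon resonance biosensor measuring binding of IL-25-MMH to purified anti-IL-25 antibodies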;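 on 100 nM Mouse IL-25-MMH Bound (RU): Real-time sensorgrams of IL-25-MMH binding to purified anti-IL-25 antibodies, rate constants obtained by fitting a 1:1 binding model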
Procedure: (§1) Equilibrium dissociation constants (KD values) for IL-25 binding to purified anti-IL-25 antibodies were determined using a real-time surface plasmon resonance biosensor assay on a Biacore 4000 instrument (GE Healthcare). […] All the IL-25 reagents were expressed with a C-terminal myc-myc-hexahistidine tag (referred to herein as “IL-25-MMH”). […] Kinetic association (kₐ) and dissociation (kd) rate constants were determined by fitting the real-time sensorgrams to a 1:1 binding model using Scrubber 2.0c curve fitting software.

Question: Which “100 nM Mouse IL-25-MMH Bound (RU)” value does the source give for B1 here?
Answer: 37 RU

Question: What about the Kd of the same binder?
Answer: 1.14 nM

Question: What about the koff of the same binder?
Answer: 0.000153 s⁻¹

Question: And the kon?
Answer: 134000 M⁻¹ s⁻¹

Question: And the t½?
Answer: 1.27 h

Question: How did the “100 nM Mouse IL-25-MMH Bound (RU)” value turn out when B2 was run?
Answer: 1 RU

Question: B3 was tested. Which “100 nM Mouse IL-25-MMH Bound (RU)” value did it give?
Answer: 41 RU

Question: What about the Kd of the same binder?
Answer: 0.258 nM

Question: What about the koff of the same binder?
Answer: 8.29e-05 s⁻¹

Question: And the kon?
Answer: 322000 M⁻¹ s⁻¹

Question: What about the t½ of the same binder?
Answer: 2.32 h

Biological target: T2, rat IL-25 expressed with a C-terminal …
Test: SPR Biacore, antibody captured, 37C;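 on 100 nM Monkey IL-25-MMH Bound (RU): biacore 4000 surface plasmon resonance biosensor measuring binding of IL-25-MMH to purified anti-IL-25 antibodies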;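 on 100 nM Mouse IL-25-MMH Bound (RU): Real-time sensorgrams of IL-25-MMH binding to purified anti-IL-25 antibodies, rate constants obtained by fitting a 1:1 binding model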
Procedure: as §1

Question: What does the source list for B1?
Answer: 100 nM Rat IL-25-MMH Bound (RU): 41 RU; Kd: 0.72 nM; koff: 0.000341 s⁻¹; kon: 474000 M⁻¹ s⁻¹; t½: 0.567 h

Question: For B2, which “100 nM Rat IL-25-MMH Bound (RU)” value is on record?
Answer: 1 RU

Question: Which “100 nM Rat IL-25-MMH Bound (RU)” value does the source give for B3 here?
Answer: 45 RU

Question: What about the Kd of the same binder?
Answer: 0.0602 nM

Question: And the koff?
Answer: 5.64e-05 s⁻¹

Question: And the kon?
Answer: 937000 M⁻¹ s⁻¹

Question: What about the t½ of the same binder?
Answer: 3.42 h

Biological target: T3, human IL-25 expressed with a C-terminal …
Test: BLI Octet, hIL-25-MMH captured on anti-Penta-His sensor, 25C
Procedure: Binding competition between anti-IL-25 monoclonal antibodies was determined using a real time, label-free bio-layer interferometry assay on an Octet QK384 biosensor (Pall ForteBio Corp.).
The biosensors were washed in HBST kinetics buffer in between every step of the experiment. The real-time binding response was monitored during the course of the experiment and the binding response at the end of every step was recorded.

Question: Which “50 ug/mL mAb-1 Binding (nm)” value does the source give for B1 here?
Answer: 1.13 nm

Question: For B2, which “50 ug/mL mAb-1 Binding (nm)” value is on record?
Answer: 0.84 nm

Question: For B3, which “50 ug/mL mAb-1 Binding (nm)” value is on record?
Answer: 1.12 nm

Biological target: T4, monkey IL-25 expressed with a …
Test: SPR Biacore, antibody captured, 37C;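 on 100 nM Monkey IL-25-MMH Bound (RU): biacore 4000 surface plasmon resonance biosensor measuring binding of IL-25-MMH to purified anti-IL-25 antibodies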;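 on 100 nM Mouse IL-25-MMH Bound (RU): Real-time sensorgrams of IL-25-MMH binding to purified anti-IL-25 antibodies, rate constants obtained by fitting a 1:1 binding model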

Question: How did the “100 nM Monkey IL-25-MMH Bound (RU)” value turn out when B1 was run?
Answer: 51 RU

Question: And the Kd?
Answer: 0.0685 nM

Question: And the koff?
Answer: 8.07e-05 s⁻¹

Question: What about the kon of the same binder?
Answer: 1.18e+06 M⁻¹ s⁻¹

Question: What about the t½ of the same binder?
Answer: 2.38 h

Question: B2 was tested. Which “100 nM Monkey IL-25-MMH Bound (RU)” value did it give?
Answer: 94 RU

Question: What about the Kd of the same binder?
Answer: 0.0436 nM

Question: And the koff?
Answer: 0.00019 s⁻¹

Question: And the kon?
Answer: 4.35e+06 M⁻¹ s⁻¹

Question: And the t½?
Answer: 1.02 h

Question: With B3 as the binder, how does the “100 nM Monkey IL-25-MMH Bound (RU)” value read?
Answer: 54 RU

Question: What about the Kd of the same binder?
Answer: 0.0546 nM

Question: What about the koff of the same binder?
Answer: 7.4e-05 s⁻¹

Question: And the kon?
Answer: 1.35e+06 M⁻¹ s⁻¹

Question: What about the t½ of the same binder?
Answer: 2.6 h

Biological target: T3, human IL-25 expressed with a C-terminal …
Test: competition ELISA, 2 nM hIL-25-MMH binding to coated hIL-17RB-hFc; (*) below theoretical bottom of the assay
Procedure: (§2) Data analysis was performed using a sigmoidal dose-response model within Prism™ software (GraphPad). […] The absorbance values of the wells containing the highest concentration for each antibody were used to determine the percent maximum blockade.

Question: For B1, which IC50 is on record?
Answer: 0.92 nM

Question: Which IC50 does the source give for B2 here?
Answer: 0.26 nM

Question: With B3 as the binder, how does the IC50 read?
Answer: 0.71 nM

Biological target: T4, monkey IL-25 expressed with a …
Test: cell-based or functional assay

Question: B1 was tested. Which “IC50, luciferase reporter cells, 12 pM MfIL-25-MMH” value (“IC50 … 12 pM MfIL-25-MMH” for short) did it give?
Answer: 3.5e-10 M

Question: For B2, which “IC50 … 12 pM MfIL-25-MMH” value is on record?
Answer: 2.6e-11 M

Question: How did the “IC50 … 12 pM MfIL-25-MMH” value turn out when B3 was run?
Answer: 8.8e-11 M

Biological target: T3, human IL-25 expressed with a C-terminal …
Test: cell-based or functional assay

Question: For B1, which “IC50, luciferase reporter cells, 5 pM hIL-25-MMH” value (“IC50 … 5 pM hIL-25-MMH” for short) is on record?
Answer: 6.9e-10 M

Question: B2 was tested. Which “IC50 … 5 pM hIL-25-MMH” value did it give?
Answer: 3.6e-11 M

Question: B3 was tested. Which “IC50 … 5 pM hIL-25-MMH” value did it give?
Answer: 3.2e-10 M

Biological target: T1, mouse IL-25 expressed with a C-terminal …
Test: cell-based or functional assay

Question: For B1, which “IC50, luciferase reporter cells, 10 pM mIL-25-MMH” value is on record?
Answer: 4.3e-09 M

Question: B3 was tested. Which “IC50, luciferase reporter cells, 10 pM mIL-25-MMH” value did it give?
Answer: 6.7e-10 M

Biological target: T2, rat IL-25 expressed with a C-terminal …
Test: SPR Biacore, antibody captured, 25C;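 on 100 nM Rat IL-25-MMH Bound (RU): purified anti-IL-25 antibodies were tested by real-time surface plasmon resonance on a Biacore 4000, with rate constants obtained from sensorgram fits to a 1:1 binding model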
Procedure: as §1

Question: Which “100 nM Rat IL-25-MMH Bound (RU)” value does the source give for B1 here?
Answer: 34 RU

Question: What about the Kd of the same binder?
Answer: 1.07 nM

Question: What about the koff of the same binder?
Answer: 0.000164 s⁻¹

Question: And the kon?
Answer: 153000 M⁻¹ s⁻¹

Question: What about the t½ of the same binder?
Answer: 1.17 h

Question: With B2 as the binder, how does the “100 nM Rat IL-25-MMH Bound (RU)” value read?
Answer: -1 RU

Question: With B3 as the binder, how does the “100 nM Rat IL-25-MMH Bound (RU)” value read?
Answer: 37 RU

Question: What about the Kd of the same binder?
Answer: 0.132 nM

Question: And the koff?
Answer: 7.23e-05 s⁻¹

Question: And the kon?
Answer: 548000 M⁻¹ s⁻¹

Question: And the t½?
Answer: 2.67 h

Biological target: T3, human IL-25 expressed with a C-terminal …
Test: cell-based or functional assay
Remark: another data set of the same source

Question: With B2 as the binder, how does the “IC50 values of antibodies for blocking IL-5 release from Donor #727058-059” value read?
Answer: 1.15 nM

Question: What about the “IC50 values of antibodies for blocking IL-5 release from Donor #727060” value of the same binder?
Answer: 0.677 nM

Question: B3 was tested. Which “IC50 values of antibodies for blocking IL-5 release from Donor #727058-059” value did it give?
Answer: 0.118 nM

Question: What about the “IC50 values of antibodies for blocking IL-5 release from Donor #727060” value of the same binder?
Answer: 0.636 nM

Biological target: T3, human IL-25 expressed with a C-terminal …
Test: competition ELISA, 2 nM hIL-25-MMH binding to coated hIL-17RB-hFc
Procedure: as §2

Question: How did the “% Maximum blocking of 200 nM antibody” value turn out when B1 was run?
Answer: 87%

Question: Which “% Maximum blocking of 200 nM antibody” value does the source give for B2 here?
Answer: 88%

Question: For B3, which “% Maximum blocking of 200 nM antibody” value is on record?
Answer: 92%

Biological target: T1, mouse IL-25 expressed with a C-terminal …
Test: SPR Biacore, antibody captured, 25C;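 on 100 nM Rat IL-25-MMH Bound (RU): purified anti-IL-25 antibodies were tested by real-time surface plasmon resonance on a Biacore 4000, with rate constants obtained from sensorgram fits to a 1:1 binding model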
Procedure: as §1

Question: B1 was tested. Which “100 nM Mouse IL-25-MMH Bound (RU)” value did it give?
Answer: 22 RU

Question: What about the Kd of the same binder?
Answer: 2.67 nM

Question: And the koff?
Answer: 0.000149 s⁻¹

Question: What about the kon of the same binder?
Answer: 55700 M⁻¹ s⁻¹

Question: And the t½?
Answer: 1.3 h

Question: Which “100 nM Mouse IL-25-MMH Bound (RU)” value does the source give for B2 here?
Answer: -1 RU

Question: What does the source list for B3?
Answer: 100 nM Mouse IL-25-MMH Bound (RU): 30 RU; Kd: 0.918 nM; koff: 0.000111 s⁻¹; kon: 121000 M⁻¹ s⁻¹; t½: 1.73 h
